The target of the test is HLA-A*0201 MART-1 peptide complex on peptide-loaded K562 cells (human). The test can be described thus: cell-based or functional assay.

MART-1/Melan-A specific TCR DMF5 gave a CD25 Fold Change (TCR-transduced CD8+ Jurkat KO cells co-cultured with peptide-loaded K562 APCs) of 235 fold, a CD69 Fold Change (TCR-transduced CD8+ Jurkat KO cells co-cultured with peptide-loaded K562 APCs) of 45 fold and an IL2 Fold Change (TCR-transduced CD8+ Jurkat KO cells co-cultured with peptide-loaded K562 APCs) of 33 fold.
